Laboratory results taken from US20220220218A1 (JIANGSU HENGRUI MEDICINE, published 2022).
Residue numbers refer to the chain shown, from its start.

T1: human CD73 (huCD73) protein, antigen of the Biacore assay (human, UniProt P21589 27-547, limits assumed)
T1 construct: also called human CD73 antigen
T1 sequence (looked up): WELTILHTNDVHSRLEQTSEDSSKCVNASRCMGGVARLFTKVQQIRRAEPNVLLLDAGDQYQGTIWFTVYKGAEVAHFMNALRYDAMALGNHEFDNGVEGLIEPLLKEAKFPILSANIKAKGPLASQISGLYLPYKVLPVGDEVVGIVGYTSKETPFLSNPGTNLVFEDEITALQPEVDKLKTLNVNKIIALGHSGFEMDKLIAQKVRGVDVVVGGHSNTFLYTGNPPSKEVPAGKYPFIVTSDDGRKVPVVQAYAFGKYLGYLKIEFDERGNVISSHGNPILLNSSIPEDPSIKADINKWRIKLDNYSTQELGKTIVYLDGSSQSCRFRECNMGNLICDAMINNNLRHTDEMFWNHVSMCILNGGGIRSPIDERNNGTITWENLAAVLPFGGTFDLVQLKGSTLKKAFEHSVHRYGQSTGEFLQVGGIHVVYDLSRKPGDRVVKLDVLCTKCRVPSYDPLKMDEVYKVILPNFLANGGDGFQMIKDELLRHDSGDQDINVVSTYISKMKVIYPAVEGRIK

B1: Hab108.33 (antibody, V domains shown)
VH: EVTLKESGPVLVKPTETLTLTCTVSGFSLSSYGIQWVRQPPGKLLEWLGVIWSGGSADYNAAFISRLTISKDTSKSQVVLTMTNMDPVDTATYYCAGQYGSVWGQGTLVTVSS
VL: DIQMTQSPSSLSASVGDRVTITCRASQDIGDRLNWLQQKPGGAIKRLIYATSSLDSGVPSRFSGSGSGTEYTLTISSLQPEDFATYYCLQYAGSWTFGGGTKVEIK
notes: VL3 + VH3; full-length antibody
B2: Hab108.34 (antibody, V domains shown)
VH: B1 VH with E6Q, V10G, L44G
VL: B1 VL
notes: VL3 + VH4; full-length antibody
B3: Hab108.65 (antibody, V domains shown)
VH: B1 VH with S30K
VL: B1 VL with S60K
notes: VL6 + VH5; full-length antibody
B4: Hab108.62 (antibody, V domains shown)
VH: B1 VH with V37I, G49A
VL: B1 VL with S60K
notes: VL6 + VH2; full-length antibody
B5: Hab108.15 (antibody, V domains shown)
VH: B1 VH with S30K
VL: B1 VL with L36Y, G42K, I44P, Y71F
notes: VL1 + VH5; full-length antibody
B6: Hab108.25 (antibody, V domains shown)
VH: B1 VH with S30K
VL: B1 VL with G42K
notes: VL2 + VH5; full-length antibody
B7: Hab108.53 (antibody, V domains shown)
VH: B1 VH
VL: B1 VL with G42K, S60K
notes: VL5 + VH3; full-length antibody
B8: Hab108.52 (antibody, V domains shown)
VH: B1 VH with V37I, G49A
VL: B1 VL with G42K, S60K
notes: VL5 + VH2; full-length antibody
B9: Hab108.45 (antibody, V domains shown)
VH: B1 VH with S30K
VL: B1 VL with T69S, T85D
notes: VL4 + VH5; full-length antibody
B10: Hab108.23 (antibody, V domains shown)
VH: B1 VH
VL: B1 VL with G42K
notes: VL2 + VH3; full-length antibody
B11: Hab108.63 (antibody, V domains shown)
VH: B1 VH
VL: B1 VL with S60K
notes: VL6 + VH3; full-length antibody
B12: Hab108.35 (antibody, V domains shown)
VH: B1 VH with S30K
VL: B1 VL
notes: VL3 + VH5; full-length antibody
B13: CH110 (antibody, V domains shown)
VH: QVQLQQSGAELARPGASVQMSCKASGYIFTSYTMHWVKQRPGQGLEWIGYINPNSFYIEYNQKFKDKATLTADTSSSTAYMQLSSLTSEDSAVYYCARGDYDLFYDMDNWGQGTSVTVSS
VL: DIQMTQSPSSLSASLGERVSLTCRASQDIGNSLNWLQQEPDGTIKRLIYATFRLDSGVPKRFSGSRSGSDYSLTISSLESEDFVDYYCQQYASFPWTFGGGTKLEIK
notes: also called chimeric antibody of mab110
B14: CH127 (antibody, V domains shown)
VH: EVQLQQSGPELVKPGESVKISCKASGYSFTAYFMNWVMQSHRKSLEWIGRIYHNNGDTFYSQKFKGKATLTVDKSSNTVHMELRSLTSEDSAVYFCATSYVGDWGQGTTLTVSS
VL: B13 VL with N31D, E39A, I44L, F52S, R53S, K60R, Q89L
notes: also called chimeric antibody of mab127

molecular target: T1, human CD73 (huCD73) protein, antigen of …; assay: SPR Biacore T200; antibody captured on Protein A chip, CD73 in flow; 1:1 Langmuir
Source text: In this experiment, Biacore instrument was used to determine the affinity of the humanized anti-CD73 antibodies to be tested with human CD73 (huCD73) and monkey CD73 (cynoCD73).
A certain amount of test antibody was affinity-captured with Protein A biosensing chip (Cat. #29127556, GE), and then a certain concentration of human or monkey CD73 antigen was allowed to flow through the surface of the chip. The reaction signals were detected in real time with Biacore instrument (Biacore T200, GE) to generate a binding and dissociation curve. At the end of each cycle, after the dissociation was completed, the biosensor chip was washed and regenerated with Glycine-HCl, pH1.5 (Cat. #BR-1003-54, GE). The running buffer for the assay was 1×HBS-EP buffer solution (Cat. #BR-1001-88, GE).
The data obtained from the experiment was fitted against (1:1) Langmuir model using GE Biacore T200 Evaluation version 3.0 software, and the affinity values were obtained, as shown in Table 12 and Table 13 for details.

First: B1
Second: B2
The Kd of the first is 2.1-fold lower: 0.481 nM for the first, 0.999 nM for the second. The first binds more tightly here.

Going from B3 to B4, the Kd rises from 0.246 nM to 0.382 nM (1.6-fold). The first binds more tightly here.

B5 and B6 are within 1.5-fold of each other in Kd: 0.485 nM for the first, 0.349 nM for the second.

First: B7
Second: B8
The Kd of the first is 1.5-fold lower: 0.609 nM for the first, 0.93 nM for the second. The first binds more tightly here.

Compared with B9, B10 is 3.6-fold higher in Kd: 0.253 nM for the first, 0.913 nM for the second. The first binds more tightly here.

Going from B11 to B12, the Kd falls from 0.513 nM to 0.28 nM (1.8-fold). The second binds more tightly here.

Going from B13 to B14, the Kd falls from 0.265 nM to 0.139 nM (1.9-fold). The second binds more tightly here.

B1 and B2 are within 1.5-fold of each other in koff: 0.000123 s⁻¹ for the first, 0.000106 s⁻¹ for the second.

B3 and B4 are within 1.5-fold of each other in koff: 6.93e-05 s⁻¹ for the first, 8.68e-05 s⁻¹ for the second.

B5 and B6 are within 1.5-fold of each other in koff: 0.000121 s⁻¹ for the first, 0.000101 s⁻¹ for the second.

First: B7
Second: B8
The koff of the first is 1.5-fold lower: 0.000156 s⁻¹ for the first, 0.000241 s⁻¹ for the second.

First: B9
Second: B10
The koff of the first is 2.5-fold lower: 7.38e-05 s⁻¹ for the first, 0.000187 s⁻¹ for the second.

B11 and B12 are within 1.5-fold of each other in koff: 0.000117 s⁻¹ for the first, 8.09e-05 s⁻¹ for the second.

Going from B13 to B14, the koff falls from 0.000147 s⁻¹ to 3.31e-05 s⁻¹ (4.4-fold).

First: B1
Second: B2
The kon of the first is 2.4-fold higher: 255000 M⁻¹ s⁻¹ for the first, 106000 M⁻¹ s⁻¹ for the second.

B3 and B4 are within 1.5-fold of each other in kon: 281000 M⁻¹ s⁻¹ for the first, 227000 M⁻¹ s⁻¹ for the second.

B5 and B6 are within 1.5-fold of each other in kon: 249000 M⁻¹ s⁻¹ for the first, 290000 M⁻¹ s⁻¹ for the second.

B7 and B8 are within 1.5-fold of each other in kon: 257000 M⁻¹ s⁻¹ for the first, 260000 M⁻¹ s⁻¹ for the second.

B9 and B10 are within 1.5-fold of each other in kon: 292000 M⁻¹ s⁻¹ for the first, 205000 M⁻¹ s⁻¹ for the second.

B11 and B12 are within 1.5-fold of each other in kon: 228000 M⁻¹ s⁻¹ for the first, 290000 M⁻¹ s⁻¹ for the second.

First: B13
Second: B14
The kon of the first is 2.3-fold higher: 556000 M⁻¹ s⁻¹ for the first, 239000 M⁻¹ s⁻¹ for the second.

molecular target: human CD73 on tumor cell line MDA-MB-231 that highly expresses human CD73 (human) (UniProt P21589); assay: cell-based or functional assay

“MEDI9447 (antibody MEDI9447 disclosed in patent application WO2016075099)” gave an IC50 (nM) in the assay showing the inhibition of enzyme activity in MDA-MB-231 cell of 0.565 nM.
